# According to patent US20060281673A1, “Novel peptide inhibitor of hiv fusion that disrupts the internal trimeric coiled-coil of gp41” (priority 2003, published 2006):
# Molecular target: pre-hairpin intermediate of gp41 (HIV-1 Env on effector cells) (HIV-1) (UniProt P03377)
# Assay: cell-based or functional assay
substance,measurement,value
N36 peptide,"IC50, inhibition of HIV Env-mediated cell fusion (vaccinia virus-based reporter gene assay)",16 µM
